The target in test [1] is ID2 (inner domain of gp120 stabilized by the C65-C115 disulfide, isolate 93TH057), from 293 cells (HIV-1 clade A/E isolate 93TH057). Kind of test: ITC; iTC200, 25°C, A32 IgG with FLSC or ID2; heats of dilution subtracted. In general terms: Isothermal titration calorimetry measures the heat released or taken up as one component is titrated into another.
Test [2] deals with single-chain gp120BaL-sCD4 complex (full-length single-chain) (HIV-1 isolate BaL | not stated). The description is as above.
The target of test [3] is ID1 (independent inner domain of gp120, first design, isolate 93TH057) (HIV-1 clade A/E isolate 93TH057). The test is described as follows: SPR; Biacore T-100, 25°C, 1:1 Langmuir model. In general terms: SPR reads the build-up and loss of mass on a sensor chip optically.
The target in test [4] is monomeric full-length BaL gp120 (HIV-1 isolate BaL). Kind of test: SPR; Biacore T-100, 25°C, 1:1 Langmuir model.
In test [5] the target is single-chain gp120BaL-sCD4 complex (full-length single-chain) (HIV-1 isolate BaL | not stated). The test is described as follows: SPR; Biacore T-100, 25°C, 1:1 Langmuir model.
The target of test [6] is ID2, stabilized inner domain of HIV-1 gp120 of clade A/E isolate 93TH057 (HIV-1 clade A/E isolate 93TH057). The test is described as follows: SPR; antibody immobilised, ID2 passed over at 0-200 nM; Biacore T-100, 25°C; 1:1 Langmuir model, BIAevaluation software; two experiments.

With mAb A32 (antibody), the Kd – broadly, the constant that tells how readily two partners part at equilibrium – in test [1] came to 9 nM; in test [2], 11.5 nM; in test [3], 9.3 nM; in test [4], 3.2 nM; in test [5], 0.23 nM; in test [6], 0.17 nM. For the same substance, the dH is -2.55 kcal/mol in test [1] and -3.15 kcal/mol in test [2]. The koff (commonly the rate constant with which the complex falls apart) in test [3] was 0.000785 s⁻¹; in test [4], 0.000437 s⁻¹; in test [5], 0.000102 s⁻¹; in test [6] it was 0.000275 s⁻¹. The kon – broadly, the second-order rate constant of association – in test [3] was 85000 M⁻¹ s⁻¹; in test [4], 139000 M⁻¹ s⁻¹; in test [5], 443000 M⁻¹ s⁻¹; in test [6], 1.65e+06 M⁻¹ s⁻¹.

These data come from paper PMC4856543.
